Km, kcat and kcat/Km data for one substance are collected here from publication PMC6372703, “A thermostable laccase from Thermus sp. 2.9 and its potential for delignification of Eucalyptus biomass” (AMB Express, 2019).

The subject of the series is CCn1c(=NN=c2sc3cc(S(=O)(=O)O)ccc3n2CC)sc2cc(S(=O)(=O)O)ccc21. The series is described as follows: purified protein. As to conditions: 20 mM sodium acetate, pH 5, 60 °C, 1 mM CuSO4.

LAC_2.9 (Thermus sp. 2.9): the Km stood at 590 ± 80 µM, the kcat stood at 1 ± 0.04 s⁻¹ and the kcat/Km is 1700 ± 200 M⁻¹ s⁻¹.

As usually defined, the Km is the substrate concentration at which the rate is half of its maximum. For orientation: kcat means the maximal rate divided by the concentration of active sites. As a reminder, the kcat/Km is the second-order rate constant that governs catalysis at low substrate concentration.
